Reference: patent US20260116991A1 (HAINAN SIMCERE ZAIMING PHARMACEUTICAL, published 2026)

Columns and labels:
[1] = molecular target: biotinylated labeled human GPC3 protein (produced in-house) (human, UniProt P51654 25-559, limits assumed, biotinylated (Dojindo, Cat. No. LK03); sites not stated); assay: ELISA, biotinylated human GPC3 protein
[2] = molecular target: T1, human GPC3 on CHO-K1-human GPC3 cells (CHOK1-hGPC3.2B5) (human, UniProt P51654 25-554); assay: FACS, CHOK1-hGPC3.2B5 cells;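 also: flow cytometry of humanized antibodies binding to the cells over one hour in the cold, read as cell mean fluorescence intensity, with EC50 obtained by curve fitting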
T1 construct: whole, on cells

[3] = molecular target: T2, murine GPC3-his protein (Sino Biological, Cat. No. 50989-M08B) (murine, UniProt Q8CFZ4 25-558); assay: ELISA, coated murine GPC3-His;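 also: antigen coated on plates at 1 µg/mL, test antibody bound for 2 h at 37 °C, detected with HRP-conjugated secondary antibody and TMB substrate after acid stop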
T2 construct: Bought protein; also called murine GPC3 protein
T2 sequence (Q8CFZ4 25-558 limits assumed): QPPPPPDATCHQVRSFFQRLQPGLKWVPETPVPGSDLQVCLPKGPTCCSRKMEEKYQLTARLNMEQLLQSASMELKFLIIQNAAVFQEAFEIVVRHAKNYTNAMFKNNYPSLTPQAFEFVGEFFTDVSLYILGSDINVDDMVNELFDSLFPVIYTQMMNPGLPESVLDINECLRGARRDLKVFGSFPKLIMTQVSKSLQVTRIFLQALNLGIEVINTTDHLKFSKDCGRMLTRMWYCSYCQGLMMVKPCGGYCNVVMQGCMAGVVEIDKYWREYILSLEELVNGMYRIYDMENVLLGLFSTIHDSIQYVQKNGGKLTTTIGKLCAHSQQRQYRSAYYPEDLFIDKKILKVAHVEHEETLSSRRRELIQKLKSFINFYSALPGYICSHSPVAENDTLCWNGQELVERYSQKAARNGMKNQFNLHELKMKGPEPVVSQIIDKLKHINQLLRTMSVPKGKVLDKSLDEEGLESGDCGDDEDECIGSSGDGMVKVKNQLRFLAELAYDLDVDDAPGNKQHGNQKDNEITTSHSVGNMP

| OD450 at 0.0008 nM [1] [OD450] | OD450 at 0.004 nM [1] [OD450] | OD450 at 0.02 nM [1] [OD450] | OD450 at 0.11 nM [1] [OD450] | OD450 at 0.53 nM [1] [OD450] | OD450 at 2.67 nM [1] [OD450] | OD450 at 13.33 nM [1] [OD450] | OD450 at 66.66 nM [1] [OD450] | EC50 [2] [nM] | Max MFI [2] [MFI] | OD450 at 0.0001 nM antibody [3] [OD450 nm] | OD450 at 0.001 nM antibody [3] [OD450 nm] | OD450 at 0.01 nM antibody [3] [OD450 nm] | OD450 at 0.1 nM antibody [3] [OD450 nm] | OD450 at 1 nM antibody [3] [OD450 nm] | OD450 at 10 nM antibody [3] [OD450 nm] | OD450 at 100 nM antibody [3] [OD450 nm] | Binder |
| --- | --- | --- | --- | --- | --- | --- | --- | --- | --- | --- | --- | --- | --- | --- | --- | --- | --- |
| 0.162 | 0.341 | 0.926 | 2 | 2.64 | 2.67 | 2.72 | 2.74 | 0.313 | 3400 |  |  |  |  |  |  |  | hAb001H1L1 (antibody, human IgG1, V domains shown, Humanized F2.169.2; VH H1 + VL L1; expressed as human IgG1) VH: EVQLVESGGGLVQPGGSLRLSCAASGFSFNTNAMNWVRQAPGKGLEWVGRIRSKSNNYATYYADSVKDRFTISRDDSKNSLYLQMNSLKTEDTAVYYCVRDGYYVLFAYWGQGTLVTVSS VL: DIVMTQTPLSLPVTPGEPASISCRFSQSIVNSNGNTYLEWFLQKPGQSPQLLIYKVSNRFSGVPDRFSGSGSGTDFTLKISRVEAEDVGVYYCFQGSHVPFTFGQGTKLEIK |
| 0.114 | 0.157 | 0.477 | 1.43 | 2.39 | 2.5 | 2.6 | 2.63 | 3.65 | 2360 |  |  |  |  |  |  |  | hAb001H1L1a (antibody, human IgG1, V domains shown, Humanized F2.169.2; VH H1 + VL L1a; expressed as human IgG1) VH: EVQLVESGGGLVQPGGSLRLSCAASGFSFNTNAMNWVRQAPGKGLEWVGRIRSKSNNYATYYADSVKDRFTISRDDSKNSLYLQMNSLKTEDTAVYYCVRDGYYVLFAYWGQGTLVTVSS VL: DIVMTQTPLSLPVTPGEPASISCRFSQSIVNSDGNTYLEWFLQKPGQSPQLLIYKVSNRFSGVPDRFSGSGSGTDFTLKISRVEAEDVGVYYCFQGSHVPFTFGQGTKLEIK |
| 0.169 | 0.324 | 0.895 | 1.97 | 2.5 | 2.6 | 2.58 | 2.6 | 0.359 | 3550 |  |  |  |  |  |  |  | hAb001H2L1 (antibody, human IgG1, V domains shown, Humanized F2.169.2; VH H2 + VL L1; expressed as human IgG1) VH: EVQLVESGGGLVQPGGSLRLSCAASGFSFNTNAMNWVRQAPGKGLEWVGRIRSKSNNYATYYADSVKDRFTISRDDSKSSLYLQMNSLKTEDTAVYYCVRDGYYVLFAYWGQGTLVTVSS VL: DIVMTQTPLSLPVTPGEPASISCRFSQSIVNSNGNTYLEWFLQKPGQSPQLLIYKVSNRFSGVPDRFSGSGSGTDFTLKISRVEAEDVGVYYCFQGSHVPFTFGQGTKLEIK |
| 0.184 | 0.327 | 0.874 | 1.85 | 2.33 | 2.42 | 2.54 | 2.67 | 0.269 | 3270 |  |  |  |  |  |  |  | hAb001H1aL1 (antibody, human IgG1, V domains shown, Humanized F2.169.2; VH H1a + VL L1; expressed as human IgG1) VH: EVQLVESGGGLVQPGGSLRLSCAASGFSFNTNAMNWVRQAPGKGLEWVGRIRSKSNNYATYYADSVKGRFTISRDDSKNSLYLQMNSLKTEDTAVYYCVRDGYYVLFAYWGQGTLVTVSS VL: DIVMTQTPLSLPVTPGEPASISCRFSQSIVNSNGNTYLEWFLQKPGQSPQLLIYKVSNRFSGVPDRFSGSGSGTDFTLKISRVEAEDVGVYYCFQGSHVPFTFGQGTKLEIK |
|  |  |  |  |  |  |  |  | 0.399 | 3160 |  |  |  |  |  |  |  | hAb001H1L1b (antibody, human IgG1, V domains shown, Humanized F2.169.2; VH H1 + VL L1b; expressed as human IgG1) VH: EVQLVESGGGLVQPGGSLRLSCAASGFSFNTNAMNWVRQAPGKGLEWVGRIRSKSNNYATYYADSVKDRFTISRDDSKNSLYLQMNSLKTEDTAVYYCVRDGYYVLFAYWGQGTLVTVSS VL: DIVMTQTPLSLPVTPGEPASISCRFSQSIVNSNANTYLEWFLQKPGQSPQLLIYKVSNRFSGVPDRFSGSGSGTDFTLKISRVEAEDVGVYYCFQGSHVPFTFGQGTKLEIK |
|  |  |  |  |  |  |  |  | 1.63 | 2530 |  |  |  |  |  |  |  | hAb001H1aL1a (antibody, human IgG1, V domains shown, Humanized F2.169.2; VH H1a + VL L1a; expressed as human IgG1) VH: EVQLVESGGGLVQPGGSLRLSCAASGFSFNTNAMNWVRQAPGKGLEWVGRIRSKSNNYATYYADSVKGRFTISRDDSKNSLYLQMNSLKTEDTAVYYCVRDGYYVLFAYWGQGTLVTVSS VL: DIVMTQTPLSLPVTPGEPASISCRFSQSIVNSDGNTYLEWFLQKPGQSPQLLIYKVSNRFSGVPDRFSGSGSGTDFTLKISRVEAEDVGVYYCFQGSHVPFTFGQGTKLEIK |
| 0.174 | 0.298 | 0.809 | 1.93 | 2.5 | 2.62 | 2.72 | 2.76 | 0.325 | 3070 |  |  |  |  |  |  |  | hAb001H1aL1b (antibody, human IgG1, V domains shown, Humanized F2.169.2; VH H1a + VL L1b; expressed as human IgG1) VH: EVQLVESGGGLVQPGGSLRLSCAASGFSFNTNAMNWVRQAPGKGLEWVGRIRSKSNNYATYYADSVKGRFTISRDDSKNSLYLQMNSLKTEDTAVYYCVRDGYYVLFAYWGQGTLVTVSS VL: DIVMTQTPLSLPVTPGEPASISCRFSQSIVNSNANTYLEWFLQKPGQSPQLLIYKVSNRFSGVPDRFSGSGSGTDFTLKISRVEAEDVGVYYCFQGSHVPFTFGQGTKLEIK |
|  |  |  |  |  |  |  |  |  |  | 0.18 | 0.15 | 0.1 | 0.1 | 0.14 | 0.16 | 0.13 | F4.18.4 human-murine chimeric antibody (antibody, human IgG1, kappa, V domains shown) VH: QVQLHQSGAEMAKPGASVNLSCKTSGFTFTDYGISWVKQRTRQGLEWIGDIYPRHINIYYNEKFKDKATLTADRSSSTAYMELRSMTSEDSAVYFCARRGTTGRGALDYWGQGTSLTVSS VL: DILLTQSPAILSVSPGERVSFSCRASQSIGTSIHWYQQRTNGSPRLLIKYAFESISGIPSRFGGSGSRTDFTLTINSVESEDIADYYCQQTYNWPYTFGGGTKLEIKR |
|  |  |  |  |  |  |  |  |  |  | 0.06 | 0.07 | 0.11 | 0.57 | 0.98 | 1.29 | 0.68 | F4.26.1 human-murine chimeric antibody (antibody, human IgG1, kappa, V domains shown) VH: QVQLKQSGPGLVQPSQSLSITCTVSGFSLTSYGVHWVRQSPGKGLEWLGVIWSSGNTDYNAVLISRLSIKKDDSKSQVFFKMNSPQVDDSAIYYCGRNGGWLLRGFMDFWGQGTSVTVSS VL: DVVMTQTPLSLPVSLGDQASISCRSSQSLLHSNGNTYLHWYLQRSGQSPNLLIYKVSNRFSGVPDRFSGGGSGTDFTLKISRVEAEDLGIYFCSQSTHVPWTFGGGTKLEIKR |
|  |  |  |  |  |  |  |  |  |  | 0.06 | 0.11 | 0.54 | 2.12 | 2.86 | 2.88 | 2.87 | F4.13.7 human-murine chimeric antibody (antibody, human IgG1, kappa, V domains shown) VH: QVQLQQPGAELVKPGASVKLSCKASGYTFTNNWVHWVKQRPGQGLEWTGMIHPDSGSTIYNEKFQSKATLTVDKSSSTAYMQLSSLTSEDSAVYYCARGYYDSSSYYAMDYWGQGTSVTVSS VL: NIQMTQTTSSLSASLGDRVTISCSASQGIFNYLNWYQQKPDGTVKLLIYYTSSLHSGVPSRFSGSGSGTDYSLTISNLEPEDIATYYCQQYSKLPWTFGGGTKLEIKR |
|  |  |  |  |  |  |  |  |  |  | 0.05 | 0.05 | 0.04 | 0.09 | 0.05 | 0.05 | 0.08 | F4.21.16 human-murine chimeric antibody (antibody, human IgG1, kappa, V domains shown) VH: DVQLQESGPGLVKPSQSLSLTCSVTGYSITSGYYWNWIRQFPGNKLEWMGYISYDVTVNYNPSLKNRISITRDTSKNQFFLKLNSVTTEDTATYYCATITSVASMDHWGQGTSVTVSS VL: DILMTQTPLSLPVSLGDQASISCRSSQNIVHRNGNTYLEWYLQKPGQSPKLLLYKVSNRFSGVPDRFSGSGSGTDFTLKISRVEAEDLGIYYCFQGSHFPFTFGSGTKLEIKR |
